Source: PMC11241209, “Elucidation of the Gemcitabine Transporters of Escherichia coli K-12 and Gamma-Proteobacteria Linked to Gemcitabine-Related Chemoresistance” (International Journal of Molecular Sciences, 2024)
Like-named read-outs stand apart in the source and are kept apart here.

Assays:
NupC = molecular target: T1, NupC (Escherichia coli, UniProt P0AFF2); assay: inhibition of [3H]-gemcitabine uptake in E. coli JW2389; assay type: cell-based; details: read-out: Inhibition by Other Nucleosides / Ki (μM) (Adenosine)
T1 construct: full-length, C-terminal biotin-acceptor domain tag (pT7-5/-BAD), expressed in E. coli JW2389 (nupC knockout)
T1 sequence (P0AFF2 1-400): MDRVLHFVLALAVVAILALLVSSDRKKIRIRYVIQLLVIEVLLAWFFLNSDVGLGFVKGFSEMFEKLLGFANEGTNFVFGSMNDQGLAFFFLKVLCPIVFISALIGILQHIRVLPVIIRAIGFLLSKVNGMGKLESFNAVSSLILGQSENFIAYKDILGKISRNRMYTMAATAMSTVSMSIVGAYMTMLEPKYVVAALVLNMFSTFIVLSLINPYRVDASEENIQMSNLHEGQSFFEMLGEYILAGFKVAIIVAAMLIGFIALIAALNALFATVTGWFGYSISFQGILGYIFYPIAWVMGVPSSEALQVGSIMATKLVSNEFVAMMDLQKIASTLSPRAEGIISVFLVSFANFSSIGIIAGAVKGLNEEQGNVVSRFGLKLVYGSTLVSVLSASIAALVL
Source text: inhibition of [3H]-gemcitabine uptake in E. coli JW2389 on NupC

KpNupC = molecular target: T2, KpNupC (Klebsiella pneumoniae, UniProt A0A0H3H172); assay: as above; assay type: cell-based
T2 construct: gene KPHS_38160; full-length, C-terminal biotin-acceptor domain tag (pT7-5/-BAD), expressed in E. coli JW2389 (nupC knockout)
T2 sequence (A0A0H3H172 entry or part of it): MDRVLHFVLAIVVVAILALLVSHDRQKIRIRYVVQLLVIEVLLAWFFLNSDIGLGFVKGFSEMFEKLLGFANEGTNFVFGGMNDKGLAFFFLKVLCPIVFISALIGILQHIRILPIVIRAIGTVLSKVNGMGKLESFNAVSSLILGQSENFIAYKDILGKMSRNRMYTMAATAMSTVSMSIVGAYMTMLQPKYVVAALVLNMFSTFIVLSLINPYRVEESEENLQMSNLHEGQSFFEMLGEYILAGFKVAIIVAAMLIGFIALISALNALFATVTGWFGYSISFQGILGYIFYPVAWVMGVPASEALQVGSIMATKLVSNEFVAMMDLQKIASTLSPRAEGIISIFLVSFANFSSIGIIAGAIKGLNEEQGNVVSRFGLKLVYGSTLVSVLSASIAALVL
Source text: inhibition of [3H]-gemcitabine uptake in E. coli JW2389 on KpNupC

KpNupG = molecular target: T3, KpNupG (Klebsiella pneumoniae, UniProt A6TDX2); assay: as above; assay type: cell-based
T3 construct: gene nupG; full-length, C-terminal biotin-acceptor domain tag (pT7-5/-BAD), expressed in E. coli JW2389 (nupC knockout)
T3 sequence (A6TDX2 1-417): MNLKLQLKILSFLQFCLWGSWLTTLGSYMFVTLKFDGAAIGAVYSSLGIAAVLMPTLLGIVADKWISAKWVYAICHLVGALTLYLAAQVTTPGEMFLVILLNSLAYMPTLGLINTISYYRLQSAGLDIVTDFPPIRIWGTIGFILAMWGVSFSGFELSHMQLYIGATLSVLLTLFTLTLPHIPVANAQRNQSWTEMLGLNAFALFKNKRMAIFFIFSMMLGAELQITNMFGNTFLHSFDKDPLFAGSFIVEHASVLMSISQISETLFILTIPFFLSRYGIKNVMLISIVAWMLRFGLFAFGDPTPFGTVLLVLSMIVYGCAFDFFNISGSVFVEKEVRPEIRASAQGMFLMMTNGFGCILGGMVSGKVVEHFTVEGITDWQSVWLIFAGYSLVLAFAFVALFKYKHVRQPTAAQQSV
Source text: inhibition of [3H]-gemcitabine uptake in E. coli JW2389 on KpNupG

CfNupG = molecular target: T4, CfNupG (Citrobacter freundii, UniProt A0A0D7LJ63); assay: as above; assay type: cell-based; details: read-out: Inhibition by Other Nucleosides / Ki (μM) (Cytidine)
T4 construct: gene nupG; full-length, C-terminal biotin-acceptor domain tag (pT7-5/-BAD), expressed in E. coli JW2389 (nupC knockout)
T4 sequence (A0A0D7LJ63 1-418): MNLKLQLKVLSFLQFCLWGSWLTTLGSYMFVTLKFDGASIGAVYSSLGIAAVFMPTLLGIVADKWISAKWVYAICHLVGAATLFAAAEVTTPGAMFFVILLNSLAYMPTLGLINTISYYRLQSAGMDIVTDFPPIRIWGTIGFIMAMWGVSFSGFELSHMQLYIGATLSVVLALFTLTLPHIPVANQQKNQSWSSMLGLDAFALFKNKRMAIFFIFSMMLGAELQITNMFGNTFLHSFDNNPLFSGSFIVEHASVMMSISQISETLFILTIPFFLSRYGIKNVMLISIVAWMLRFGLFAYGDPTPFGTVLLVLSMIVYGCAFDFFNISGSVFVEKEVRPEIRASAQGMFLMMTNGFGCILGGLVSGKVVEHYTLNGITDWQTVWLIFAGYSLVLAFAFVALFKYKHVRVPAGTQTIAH
Source text: inhibition of [3H]-gemcitabine uptake in E. coli JW2389 on CfNupG

KpNupC2 = molecular target: T5, KpNupC2 (Klebsiella pneumoniae, UniProt A6T7A8); assay: as above; assay type: cell-based
T5 construct: gene nupC; full-length, C-terminal biotin-acceptor domain tag (pT7-5/-BAD), expressed in E. coli JW2389 (nupC knockout)
T5 sequence (A6T7A8 entry or part of it): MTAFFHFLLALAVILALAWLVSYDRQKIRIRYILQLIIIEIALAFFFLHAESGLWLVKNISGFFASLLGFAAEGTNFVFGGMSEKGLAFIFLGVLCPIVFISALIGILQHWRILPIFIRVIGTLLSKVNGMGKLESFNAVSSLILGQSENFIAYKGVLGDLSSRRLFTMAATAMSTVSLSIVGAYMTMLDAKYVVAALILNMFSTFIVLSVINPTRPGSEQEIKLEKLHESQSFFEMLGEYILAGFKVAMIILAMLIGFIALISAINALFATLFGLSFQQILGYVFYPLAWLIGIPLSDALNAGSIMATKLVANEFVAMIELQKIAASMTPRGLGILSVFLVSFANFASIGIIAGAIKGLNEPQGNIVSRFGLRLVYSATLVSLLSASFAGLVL
Source text: inhibition of [3H]-gemcitabine uptake in E. coli JW2389 on KpNupC2

CfNupC = molecular target: T6, CfNupC (Citrobacter freundii, UniProt A0A0D7LF62); assay: as above; assay type: cell-based; details: read-out: Inhibition by Other Nucleosides / Ki (μM) (Cytidine)
T6 construct: gene nupC; full-length, C-terminal biotin-acceptor domain tag (pT7-5/-BAD), expressed in E. coli JW2389 (nupC knockout)
T6 sequence (A0A0D7LF62 entry or part of it): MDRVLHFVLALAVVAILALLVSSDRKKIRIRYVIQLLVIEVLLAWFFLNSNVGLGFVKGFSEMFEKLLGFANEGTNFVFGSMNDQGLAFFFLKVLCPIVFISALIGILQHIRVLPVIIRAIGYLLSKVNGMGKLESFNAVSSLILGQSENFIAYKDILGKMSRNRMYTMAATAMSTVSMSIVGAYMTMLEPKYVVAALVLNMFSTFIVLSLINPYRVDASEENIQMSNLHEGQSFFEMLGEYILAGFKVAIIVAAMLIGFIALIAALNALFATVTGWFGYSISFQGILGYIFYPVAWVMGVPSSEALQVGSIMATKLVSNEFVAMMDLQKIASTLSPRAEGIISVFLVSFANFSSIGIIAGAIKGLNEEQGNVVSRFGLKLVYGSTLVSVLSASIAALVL
Source text: inhibition of [3H]-gemcitabine uptake in E. coli JW2389 on CfNupC

NupG = molecular target: T7, NupG (Escherichia coli, UniProt P0AFF4); assay: as above; assay type: cell-based
T7 construct: full-length, C-terminal biotin-acceptor domain tag (pT7-5/-BAD), expressed in E. coli JW2389 (nupC knockout)
T7 sequence (P0AFF4 1-418): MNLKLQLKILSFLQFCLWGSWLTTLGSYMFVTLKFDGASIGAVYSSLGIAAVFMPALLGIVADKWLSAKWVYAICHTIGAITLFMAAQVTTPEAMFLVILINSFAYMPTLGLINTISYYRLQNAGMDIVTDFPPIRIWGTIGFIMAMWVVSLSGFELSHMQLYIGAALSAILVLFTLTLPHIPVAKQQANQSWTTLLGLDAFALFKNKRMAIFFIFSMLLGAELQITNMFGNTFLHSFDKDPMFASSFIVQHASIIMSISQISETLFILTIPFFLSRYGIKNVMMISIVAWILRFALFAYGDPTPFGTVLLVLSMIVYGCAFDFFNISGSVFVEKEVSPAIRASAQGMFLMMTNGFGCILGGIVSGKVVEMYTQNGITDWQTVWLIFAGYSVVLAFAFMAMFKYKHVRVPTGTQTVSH
Source text: inhibition of [3H]-gemcitabine uptake in E. coli JW2389 on NupG

[1] = tested on: Nc1ccn([C@@H]2O[C@H](CO)[C@@H](O)C2(F)F)c(=O)n1; assay: cells, lysate or membranes; assay type: cell-based, Citrobacter freundii; details: labelled compound, pH 6.5, 25 °C, glycerol-energized cells
[2] = tested on: Nc1ccn([C@@H]2O[C@H](CO)[C@@H](O)C2(F)F)c(=O)n1; assay: cells, lysate or membranes; assay type: cell-based, Klebsiella pneumoniae; details: labelled compound, pH 6.5, 25 °C, glycerol-energized cells
[3] = tested on: Nc1ccn([C@@H]2O[C@H](CO)[C@@H](O)C2(F)F)c(=O)n1; assay: cells, lysate or membranes; details: labelled compound, pH 6.5, 25 °C, glycerol-energized cells
[4] = tested on: Nc1ccn([C@@H]2O[C@H](CO)[C@@H](O)C2(F)F)c(=O)n1; assay: cells, lysate or membranes; assay type: cell-based, Escherichia coli; details: labelled compound, pH 6.5, 25 °C, glycerol-energized cells
[5] = substrate: Nc1ccn([C@@H]2O[C@H](CO)[C@@H](O)C2(F)F)c(=O)n1; assay: cells, lysate or membranes; details: labelled compound, pH 6.5, 25 °C, glycerol-energized cells; remark: listed apart in the source
[6] = read-out: Inhibition by Other Nucleosides / Ki (μM) (Cytidine)

Question: How did the Ki (NupC) turn out when `Nc1ncnc2c1ncn2[C@@H]1O[C@H](CO)[C@@H](O)[C@H]1O` [adenosine] was run?
Answer: 5.4 ± 1.4 µM

Question: And the Ki (KpNupC; read-out: Inhibition by Other Nucleosides / Ki (μM) (Adenosine))?
Answer: 7.7 ± 0.8 µM

Question: Which results are given for `Nc1ccn([C@@H]2O[C@H](CO)[C@@H](O)[C@H]2O)c(=O)n1` [cytidine]?
Answer: Ki (KpNupG; [6]): 18.1 ± 4 µM; Ki (CfNupG): 20.2 ± 3.8 µM; Ki (KpNupC; [6]): 6.7 ± 1.3 µM; Ki (KpNupC2; [6]): 6.5 ± 1 µM; Ki (CfNupC): 7.2 ± 1.4 µM

Question: With `Nc1nc2c(ncn2[C@@H]2O[C@H](CO)[C@@H](O)[C@H]2O)c(=O)[nH]1` [guanosine] as the molecule, how does the Ki (KpNupG; read-out: Inhibition by Other Nucleosides / Ki (μM) (Guanosine)) read?
Answer: 18.3 ± 4.5 µM

Question: And the Ki (NupG)?
Answer: 15.3 ± 5.8 µM

Question: For `O=c1ccn([C@@H]2O[C@H](CO)[C@@H](O)[C@H]2O)c(=O)[nH]1` [uridine], which Ki (KpNupC2) is on record?
Answer: 6.1 ± 1 µM

Question: What does the source list for CfNupC (Citrobacter freundii)?
Answer: Km [1]: 12.8 ± 1.3 µM; Vmax [1]: 0.102 µmol/min/mg; Vmax/Km [1]: 7800 µL/min/mg

Question: What does the source list for CfNupG (Citrobacter freundii)?
Answer: Km [1]: 2.7 ± 0.3 µM; Vmax [1]: 0.0474 µmol/min/mg; Vmax/Km [1]: 17200 µL/min/mg

Question: Which results are given for “KpNupC2 (Klebsiella pneumoniae subsp. pneumoniae MGH 78578)”?
Answer: Km [2]: 11.6 ± 3.2 µM; Vmax [2]: 0.0873 µmol/min/mg; Vmax/Km [2]: 7500 µL/min/mg

Question: “KpNupC (Klebsiella pneumoniae subsp. pneumoniae HS11286)” was tested. Which Km [3] did it give?
Answer: 10.9 ± 2.0 µM

Question: And the Vmax [3]?
Answer: 0.0928 µmol/min/mg

Question: What about the Vmax/Km [3] of the same molecule?
Answer: 8600 µL/min/mg

Question: For NupC (Escherichia coli K-12), which Km [4] is on record?
Answer: 9.8 ± 1.0 µM

Question: And the Vmax [4]?
Answer: 0.0994 µmol/min/mg

Question: What about the Vmax/Km [4] of the same molecule?
Answer: 10100 µL/min/mg

B1: NupG (Escherichia coli K-12) (protein)
chain: MNLKLQLKILSFLQFCLWGSWLTTLGSYMFVTLKFDGASIGAVYSSLGIAAVFMPALLGIVADKWLSAKWVYAICHTIGAITLFMAAQVTTPEAMFLVILINSFAYMPTLGLINTISYYRLQNAGMDIVTDFPPIRIWGTIGFIMAMWVVSLSGFELSHMQLYIGAALSAILVLFTLTLPHIPVAKQQANQSWTTLLGLDAFALFKNKRMAIFFIFSMLLGAELQITNMFGNTFLHSFDKDPMFASSFIVQHASIIMSISQISETLFILTIPFFLSRYGIKNVMMISIVAWILRFALFAYGDPTPFGTVLLVLSMIVYGCAFDFFNISGSVFVEKEVSPAIRASAQGMFLMMTNGFGCILGGIVSGKVVEMYTQNGITDWQTVWLIFAGYSVVLAFAFMAMFKYKHVRVPTGTQTVSH
Question: What does the source list for B1?
Answer: Km [5]: 2.8 ± 0.4 µM; Vmax [5]: 0.0461 µmol/min/mg; Vmax/Km [5]: 16600 µL/min/mg

B2: KpNupG (Klebsiella pneumoniae subsp. pneumoniae MGH 78578) (protein)
chain: MNLKLQLKILSFLQFCLWGSWLTTLGSYMFVTLKFDGAAIGAVYSSLGIAAVLMPTLLGIVADKWISAKWVYAICHLVGALTLYLAAQVTTPGEMFLVILLNSLAYMPTLGLINTISYYRLQSAGLDIVTDFPPIRIWGTIGFILAMWGVSFSGFELSHMQLYIGATLSVLLTLFTLTLPHIPVANAQRNQSWTEMLGLNAFALFKNKRMAIFFIFSMMLGAELQITNMFGNTFLHSFDKDPLFAGSFIVEHASVLMSISQISETLFILTIPFFLSRYGIKNVMLISIVAWMLRFGLFAFGDPTPFGTVLLVLSMIVYGCAFDFFNISGSVFVEKEVRPEIRASAQGMFLMMTNGFGCILGGMVSGKVVEHFTVEGITDWQSVWLIFAGYSLVLAFAFVALFKYKHVRQPTAAQQSV
Question: Which results are given for B2?
Answer: Km [5]: 2.8 ± 0.3 µM; Vmax [5]: 0.0456 µmol/min/mg; Vmax/Km [5]: 17100 µL/min/mg
